We go through 125 sequences from the supplement of paper PMC9112550, “Optimization of the antimicrobial peptide Bac7 by deep mutational scanning” (BMC Biology, 2022).
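Note: peptides expressed intracellularly from a pBAD plasmid library in pooled LB shake-flask culture, induced with 0.3% L-arabinose, DNA abundance read by NGS, three biological replicates, DESeq2 with apeglm shrinkage.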

This data set relates to Escherichia coli TOP10. As to the kind of experiment: shrunken log2 fold change of peptide-encoding DNA abundance (4.5 h post-induction vs induction); higher = less antimicrobial activity (less host growth inhibition). The following applies: time post-induction: 4.5 h; library: site-saturation at positions 5, 18, 19, 20.
Regarding RRIRLRPPRLPRPRPRPYACPRP, the “shrunken log2 fold change” value was -0.0291.
In the case of RRIRHRPPRLPRPRPRPEAWPRP, the “shrunken log2 fold change” value worked out at 0.0548.
As to RRIRDRPPRLPRPRPRPTIWPRP, the “shrunken log2 fold change” value was -0.0201.
With RRIRRRPPRLPRPRPRPNCSPRP the figure was 0.198; with RRIRRRPPRLPRPRPRPHFPPRP, 0.553.
On to RRIRARPPRLPRPRPRPVYWPRP, for which the “shrunken log2 fold change” value was 0.141.
As to RRIRERPPRLPRPRPRPERQPRP, the “shrunken log2 fold change” value is -0.0184.
In the case of RRIRTRPPRLPRPRPRPMDEPRP, the “shrunken log2 fold change” value is -0.219.
As to RRIRERPPRLPRPRPRPCICPRP, the “shrunken log2 fold change” value was -0.0733.
For RRIRHRPPRLPRPRPRPQPEPRP, the “shrunken log2 fold change” value was -0.0374.
With RRIRERPPRLPRPRPRPTKTPRP the figure was -0.0835; with RRIRERPPRLPRPRPRPPQWPRP, 0.0679.
With RRIRCRPPRLPRPRPRPCCYPRP, the “shrunken log2 fold change” value was -0.696.
For RRIRMRPPRLPRPRPRPNQGPRP, the “shrunken log2 fold change” value is -0.0312.
For the sequence RRIRARPPRLPRPRPRPKCKPRP, the “shrunken log2 fold change” value was determined as 0.278.
Under RRIRDRPPRLPRPRPRPCWYPRP stands -0.369; under RRIRTRPPRLPRPRPRPKSGPRP, 0.0903; under RRIRTRPPRLPRPRPRPAHWPRP, 0.882.
In the case of RRIRVRPPRLPRPRPRPILMPRP, the “shrunken log2 fold change” value is -0.231.
As for RRIRYRPPRLPRPRPRPLDCPRP, the “shrunken log2 fold change” value is -0.068.
As for RRIRTRPPRLPRPRPRPRFKPRP, the “shrunken log2 fold change” value came out at 0.115.
As for RRIRFRPPRLPRPRPRPCNWPRP, the “shrunken log2 fold change” value stood at 0.128.
As to RRIRNRPPRLPRPRPRPNMNPRP, the “shrunken log2 fold change” value was -0.265.
With RRIRRRPPRLPRPRPRPEILPRP the figure was 0.14; with RRIRQRPPRLPRPRPRPQLSPRP, -0.0914; with RRIRYRPPRLPRPRPRPDVNPRP, -0.0115.
With RRIRVRPPRLPRPRPRPDNQPRP the figure was -0.0991.
RRIRTRPPRLPRPRPRPTPTPRP: the “shrunken log2 fold change” value stood at 0.289.
For the sequence RRIRIRPPRLPRPRPRPMQRPRP, the “shrunken log2 fold change” value was -0.129.
Consider RRIRERPPRLPRPRPRPVWPPRP, for which the “shrunken log2 fold change” value was determined as 0.0958.
Consider RRIRMRPPRLPRPRPRPILLPRP, for which the “shrunken log2 fold change” value is -0.0378.
In the case of RRIRHRPPRLPRPRPRPRNHPRP, the “shrunken log2 fold change” value was -0.481.
For RRIRLRPPRLPRPRPRPWRCPRP, the “shrunken log2 fold change” value turned out to be 0.336.
In the case of RRIRWRPPRLPRPRPRPNTIPRP, the “shrunken log2 fold change” value is -0.492.
Turning to RRIRYRPPRLPRPRPRPGIGPRP, the “shrunken log2 fold change” value was -0.659.
In the case of RRIRARPPRLPRPRPRPIVQPRP, the “shrunken log2 fold change” value turned out to be 0.0602.
For the sequence RRIRPRPPRLPRPRPRPISRPRP, the “shrunken log2 fold change” value stood at 0.121.
As to RRIRSRPPRLPRPRPRPRMKPRP, the “shrunken log2 fold change” value is -0.0423.
Take RRIRNRPPRLPRPRPRPAPLPRP: the “shrunken log2 fold change” value stood at 0.196.
Turning to RRIRSRPPRLPRPRPRPWVMPRP, the “shrunken log2 fold change” value is -0.0894.
Consider RRIRCRPPRLPRPRPRPQDWPRP, for which the “shrunken log2 fold change” value was -0.0628.
With RRIRPRPPRLPRPRPRPCYEPRP, the “shrunken log2 fold change” value was -0.195.
With RRIRQRPPRLPRPRPRPQVHPRP, the “shrunken log2 fold change” value was found to be 0.0124.
As to RRIRDRPPRLPRPRPRPKAPPRP, the “shrunken log2 fold change” value was determined as 0.341.
For the sequence RRIRRRPPRLPRPRPRPAQLPRP, the “shrunken log2 fold change” value worked out at 0.42.
For RRIRERPPRLPRPRPRPDHQPRP, the “shrunken log2 fold change” value was -0.223.
Take RRIRWRPPRLPRPRPRPRLHPRP: the “shrunken log2 fold change” value is 0.191.
As to RRIRERPPRLPRPRPRPSGIPRP, the “shrunken log2 fold change” value is -0.272.
As for RRIRNRPPRLPRPRPRPNHEPRP, the “shrunken log2 fold change” value is -0.00884.
RRIRERPPRLPRPRPRPDIEPRP: the “shrunken log2 fold change” value was -0.0223.
Consider RRIRNRPPRLPRPRPRPRSWPRP, for which the “shrunken log2 fold change” value stood at 0.201.
Under RRIRARPPRLPRPRPRPHTKPRP stands 0.0902; under RRIRSRPPRLPRPRPRPKPIPRP, 0.271.
As to RRIRTRPPRLPRPRPRPQYAPRP, the “shrunken log2 fold change” value was -0.317.
RRIRSRPPRLPRPRPRPECNPRP: the “shrunken log2 fold change” value is 0.218.
Regarding RRIRFRPPRLPRPRPRPWHGPRP, the “shrunken log2 fold change” value is -0.151.
RRIRHRPPRLPRPRPRPLIKPRP: the “shrunken log2 fold change” value was -0.721.
With RRIRFRPPRLPRPRPRPLHPPRP, the “shrunken log2 fold change” value is -0.0197.
For the sequence RRIRMRPPRLPRPRPRPHWAPRP, the “shrunken log2 fold change” value amounted to 0.00824.
As to RRIRCRPPRLPRPRPRPNYMPRP, the “shrunken log2 fold change” value was -0.677.
Consider RRIRNRPPRLPRPRPRPYAFPRP, for which the “shrunken log2 fold change” value was 0.0147.
Regarding RRIRFRPPRLPRPRPRPIVCPRP, the “shrunken log2 fold change” value is -0.406.
RRIRMRPPRLPRPRPRPWHPPRP: the “shrunken log2 fold change” value was -0.297.
On to RRIRQRPPRLPRPRPRPTVYPRP, for which the “shrunken log2 fold change” value stood at 0.079.
Consider RRIRQRPPRLPRPRPRPLFCPRP, for which the “shrunken log2 fold change” value worked out at 0.213.
Consider RRIRYRPPRLPRPRPRPWHLPRP, for which the “shrunken log2 fold change” value was -0.0873.
On to RRIRWRPPRLPRPRPRPRLFPRP, for which the “shrunken log2 fold change” value is 0.432.
In the case of RRIRLRPPRLPRPRPRPYAGPRP, the “shrunken log2 fold change” value amounted to 0.0235.
In the case of RRIRARPPRLPRPRPRPFSLPRP, the “shrunken log2 fold change” value turned out to be 0.0486.
Regarding RRIRARPPRLPRPRPRPIRWPRP, the “shrunken log2 fold change” value turned out to be 0.211.
As to RRIRYRPPRLPRPRPRPLLTPRP, the “shrunken log2 fold change” value was -0.647.
With RRIRARPPRLPRPRPRPKNVPRP, the “shrunken log2 fold change” value was determined as 0.166.
Turning to RRIRVRPPRLPRPRPRPHSIPRP, the “shrunken log2 fold change” value is -0.155.
Consider RRIRPRPPRLPRPRPRPMQTPRP, for which the “shrunken log2 fold change” value stood at 0.119.
On to RRIRKRPPRLPRPRPRPITPPRP, for which the “shrunken log2 fold change” value turned out to be 0.0433.
As for RRIRNRPPRLPRPRPRPPHTPRP, the “shrunken log2 fold change” value is -0.0383.
With RRIRYRPPRLPRPRPRPNKWPRP, the “shrunken log2 fold change” value was determined as 0.0191.
With RRIRNRPPRLPRPRPRPTFYPRP, the “shrunken log2 fold change” value is -0.376.
With RRIRDRPPRLPRPRPRPQDQPRP, the “shrunken log2 fold change” value was -0.144.
Consider RRIRPRPPRLPRPRPRPNWVPRP, for which the “shrunken log2 fold change” value is -0.2.
Consider RRIRKRPPRLPRPRPRPRMPPRP, for which the “shrunken log2 fold change” value came out at 0.363.
With RRIRNRPPRLPRPRPRPLSHPRP the figure was -0.596; with RRIRPRPPRLPRPRPRPQDNPRP, -0.548; with RRIRKRPPRLPRPRPRPPAYPRP, 0.417.
On to RRIRNRPPRLPRPRPRPLMEPRP, for which the “shrunken log2 fold change” value was -0.0667.
Under RRIRSRPPRLPRPRPRPNQHPRP stands -0.201; under RRIRYRPPRLPRPRPRPICPPRP, -0.471.
With RRIRNRPPRLPRPRPRPKKVPRP, the “shrunken log2 fold change” value is -0.0914.
Regarding RRIRKRPPRLPRPRPRPWYQPRP, the “shrunken log2 fold change” value came to 0.218.
Turning to RRIRERPPRLPRPRPRPHKEPRP, the “shrunken log2 fold change” value was -0.189.
In the case of RRIRCRPPRLPRPRPRPDQAPRP, the “shrunken log2 fold change” value stood at 0.288.
With RRIRKRPPRLPRPRPRPRRYPRP, the “shrunken log2 fold change” value turned out to be 0.47.
Regarding RRIRSRPPRLPRPRPRPFAKPRP, the “shrunken log2 fold change” value was -0.136.
Regarding RRIRWRPPRLPRPRPRPSVMPRP, the “shrunken log2 fold change” value was -0.333.
With RRIRFRPPRLPRPRPRPASQPRP, the “shrunken log2 fold change” value was -0.0114.
Regarding RRIRLRPPRLPRPRPRPTVKPRP, the “shrunken log2 fold change” value was -0.0583.
For the sequence RRIRPRPPRLPRPRPRPCTQPRP, the “shrunken log2 fold change” value was -0.106.
Consider RRIRIRPPRLPRPRPRPDFRPRP, for which the “shrunken log2 fold change” value is -0.371.
In the case of RRIRTRPPRLPRPRPRPRWRPRP, the “shrunken log2 fold change” value stood at 0.483.
As to RRIRERPPRLPRPRPRPGVHPRP, the “shrunken log2 fold change” value is -0.139.
Regarding RRIRGRPPRLPRPRPRPYCSPRP, the “shrunken log2 fold change” value is -0.0241.
With RRIRSRPPRLPRPRPRPKPGPRP the figure was 0.283; with RRIRGRPPRLPRPRPRPKEGPRP, 1.62.
In the case of RRIRWRPPRLPRPRPRPWLDPRP, the “shrunken log2 fold change” value is -0.231.
Under RRIRQRPPRLPRPRPRPPMCPRP stands -0.213.
Consider RRIRLRPPRLPRPRPRPTPDPRP, for which the “shrunken log2 fold change” value turned out to be 0.626.
Turning to RRIRCRPPRLPRPRPRPLVNPRP, the “shrunken log2 fold change” value was -0.841.
As to RRIRFRPPRLPRPRPRPMMEPRP, the “shrunken log2 fold change” value is -0.426.
With RRIRLRPPRLPRPRPRPRIYPRP the figure was -0.636; with RRIRERPPRLPRPRPRPWGEPRP, -0.279; with RRIRHRPPRLPRPRPRPHQVPRP, -0.00848.
On to RRIRRRPPRLPRPRPRPPILPRP, for which the “shrunken log2 fold change” value was -0.1.
Regarding RRIRGRPPRLPRPRPRPMTEPRP, the “shrunken log2 fold change” value is 0.0819.
Take RRIRDRPPRLPRPRPRPFWFPRP: the “shrunken log2 fold change” value was found to be 0.0429.
As for RRIRRRPPRLPRPRPRPNVFPRP, the “shrunken log2 fold change” value amounted to 0.426.
In the case of RRIRDRPPRLPRPRPRPFNHPRP, the “shrunken log2 fold change” value is -0.368.
Regarding RRIRIRPPRLPRPRPRPEHAPRP, the “shrunken log2 fold change” value came out at 0.00666.
RRIRRRPPRLPRPRPRPIGGPRP: the “shrunken log2 fold change” value was 0.205.
Regarding RRIRDRPPRLPRPRPRPRCMPRP, the “shrunken log2 fold change” value is -0.158.
In the case of RRIRRRPPRLPRPRPRPMPMPRP, the “shrunken log2 fold change” value was found to be 0.0681.
In the case of RRIRRRPPRLPRPRPRPSKPPRP, the “shrunken log2 fold change” value was determined as 0.241.
Under RRIRERPPRLPRPRPRPHCHPRP stands -0.657; under RRIRDRPPRLPRPRPRPHMVPRP, -0.195; under RRIRRRPPRLPRPRPRPYAYPRP, -0.189.
Take RRIRIRPPRLPRPRPRPSICPRP: the “shrunken log2 fold change” value was -0.814.
